Reference: publication PMC4742251, “The Malarial Exported PFA0660w Is an Hsp40 Co-Chaperone of PfHsp70-x” (PLoS ONE, 2016)

Assays:
Conditions in all cases: both partners purified
(His)6-PfHsp70-x = (His)6-PfHsp70-x (Plasmodium falciparum); test: SPR; Hsp70s amine-coupled to a GLC chip (ProteOn XPR36); PFA0660w 200-1000 nM as analyte in PBST pH 7.4 with 1 mM ATP; 60 μl/min, 90 s contact, 300 s dissociation; separate fits of association and dissociation, KD calculated from the rate constants
HSPA1A-(His)6 [1] = biological target: T1, HSPA1A-(His)6 (human, UniProt P0DMV8 1-641); test: as above
T1 construct: human Hsp70 (HSPA1A); also called human Hsp70; HSPAIA

(His)6-PfHsp70-1 = biological target: T2, (His)6-PfHsp70-1 (Plasmodium falciparum, UniProt Q8IB24 1-677); test: as above
T2 construct: PfHsp70-1, parasite-resident Hsp70 of Plasmodium falciparum

HSPA1A-(His)6 [2] = biological target: T1, HSPA1A-(His)6; test: SPR; Hsp70s amine-coupled to a GLC chip (ProteOn XPR36); BSA, Hsj1a or PFA0660w at 1 μM as analyte in PBST pH 7.4, with and without 1 mM ATP; read qualitatively

T1 sequence (P0DMV8 whole entry): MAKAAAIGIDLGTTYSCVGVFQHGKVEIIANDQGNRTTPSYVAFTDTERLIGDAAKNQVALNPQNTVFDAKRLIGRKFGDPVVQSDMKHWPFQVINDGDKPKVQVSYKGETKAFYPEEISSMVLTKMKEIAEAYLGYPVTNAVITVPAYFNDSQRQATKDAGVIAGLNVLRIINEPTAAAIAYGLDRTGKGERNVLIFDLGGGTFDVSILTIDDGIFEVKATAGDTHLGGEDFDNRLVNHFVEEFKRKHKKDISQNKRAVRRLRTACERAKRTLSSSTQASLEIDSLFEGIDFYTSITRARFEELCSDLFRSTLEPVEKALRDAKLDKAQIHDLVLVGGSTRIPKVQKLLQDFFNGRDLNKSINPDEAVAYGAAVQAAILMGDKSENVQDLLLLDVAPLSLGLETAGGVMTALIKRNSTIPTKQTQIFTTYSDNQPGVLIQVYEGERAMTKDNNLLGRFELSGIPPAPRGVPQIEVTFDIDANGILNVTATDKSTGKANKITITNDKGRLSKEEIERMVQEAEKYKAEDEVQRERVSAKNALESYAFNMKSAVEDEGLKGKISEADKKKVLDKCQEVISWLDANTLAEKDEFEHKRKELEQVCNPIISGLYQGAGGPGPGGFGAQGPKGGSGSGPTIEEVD

Binder | Kd ((His)6-PfHsp70-x) | Kd (HSPA1A-(His)6 [1]) | Kd ((His)6-PfHsp70-1) | binding result (HSPA1A-(His)6 [2])
(His)6-PFA0660w (natural protein) AEGNKNFFFNKDNGVFGKSSMDYYTLLGVDKGCSEDDLRRAYLKLAMKWHPDKHVNKGSKVEAEEKFKNICEAYSVLSDNEKRVKYDLFGMDALKQSGFNSSNFQGNISINPLEVFTKAYSFYNKYFSKSSGAGNHNIFTHIKNLYPLRNDFSEDESSYNDVEEYEVPLYVTLEDLYNGCTKTLKVTRKRYDGCYLYYEDYFINVDIKQGWNNGTKITFHGEGDQSSPDSYPGDLVLVLQTKKHSKFVRKSRDLYYRHIITLEQSLTGFDFVIKSLDNRDIHIQIDEVVKPDTKKVIKNEGMPYSRDPSIRGNLIVEFDIIYPNTIKKEQKKLIKEIFKESY | 37 nM | 64 nM | 251 nM | –
(His)6-Hsj1a (natural protein, UniProt P25686-2 1-277, looked up, Control Hsp40; also called DNAJB2a) MASYYEILDVPRSASADDIKKAYRRKALQWHPDKNPDNKEFAEKKFKEVAEAYEVLSDKHKREIYDRYGREGLTGTGTGPSRAEAGSGGPGFTFTFRSPEEVFREFFGSGDPFAELFDDLGPFSELQNRGSRHSGPFFTFSSSFPGHSDFSSSSFSFSPGAGAFRSVSTSTTFVQGRRITTRRIMENGQERVEVEEDGQLKSVTINGVPDDLALGLELSRREQQPSVTSRSGGTQVQQTPASCPLDSDLSEDEDLQLAMAYSLSEMEAAGKKPADVF | – | – | – | binds
